Measurements published in patent publication US6183121.

Experiments:
[1] = molecular target: HCV NS3 helicase domain (wild type) (Hepatitis C virus) (UniProt P26664); settings: poly(U)-stimulated ATPase; 50 mM MOPS pH 7.0, 0.5 mM MgCl2, 37 C
[2] = molecular target: HCV NS3 full-length (wild type) (Hepatitis C virus) (UniProt P26664)
[3] = molecular target: HCV NS3 helicase domain (wild type) (Hepatitis C virus) (UniProt P26664); settings: requires ATP and Mn2+ or Mg2+; 25 mM MOPS pH 6.5, 1 mM ATP, 0.5 mM MnCl2, 37 C
[4] = molecular target: HCV NS3 helicase domain (wild type) (Hepatitis C virus) (UniProt P26664); assay: filter; settings: 25 mM MOPS pH 7.0, 2 mM DTT, 30 C; 0.445 RNA per helicase molecule; koff 1.52e-2 min-1
[5] = molecular target: HCV NS3 full-length (wild type) (Hepatitis C virus) (UniProt P26664); assay: filter; settings: reference

poly(U) was tested, and the activity (% of basal WT ATPase) [1] was 823 and the activity (% of basal WT ATPase) ([2]; poly(U)-stimulated ATPase) was 581.
“3'-tailed 98-nt RNA / 34-nt DNA hybrid (pSP65 BsrBI transcript; pSP64 release strand)” was tested, and the activity (% of WT unwinding) [3] was 100 and the activity (% of WT unwinding) ([2]; reference) was 100.
“34-nt ssRNA (SP6 transcript of BamHI-digested pSP64)” was tested, and the Kd [4] was 5.18 nM and the binding signal [5] was 100 % of WT.
